According to article PMC3526836:

Molecular target: C-terminal peptide of cystic fibrosis transmembrane conductance regulator (CFTR), F-Ahx-VQDTLR
Assay: fluorescence polarisation

Binder | Kd [µM]
NHERF1 PDZ1 domain (N-terminal PDZ domain of NHERF1/EBP50), wild type (domain or fragment) LPRLCCLEKGPNGYGFHLHGEKGKLGQYIRLVEPGSPAEKAGLLAGDRLVEVNGENVEKETHQQVVSRIRAALNAVRLLVVDPETDEQL | 13
NHERF1 PDZ1 domain K32A/K34A (domain or fragment) LPRLCCLEKGPNGYGFHLHGEAGALGQYIRLVEPGSPAEKAGLLAGDRLVEVNGENVEKETHQQVVSRIRAALNAVRLLVVDPETDEQL | 13
NHERF1 PDZ1 domain Y38A/R40A (domain or fragment) LPRLCCLEKGPNGYGFHLHGEKGKLGQAIALVEPGSPAEKAGLLAGDRLVEVNGENVEKETHQQVVSRIRAALNAVRLLVVDPETDEQL | 14
